As usually defined, the Kd is the constant that tells how readily two partners part at equilibrium. As usually defined, the koff is a measure of how fast the partners let go of each other. What is called kon is the rate constant with which the complex forms.

Residue numbers refer to the chain shown, from its start.

The results in this text go back to patent publication US20220153839A1 (NBE THERAPEUTICS, published 2022).

In assay [1] the target is T1, hROR2 (human, UniProt Q01974).
T1 construct: full length, on the cell surface; also called 63-12 / hROR2; ROR2 on T47D cells
T1 sequence (Q01974 34-943 limits assumed): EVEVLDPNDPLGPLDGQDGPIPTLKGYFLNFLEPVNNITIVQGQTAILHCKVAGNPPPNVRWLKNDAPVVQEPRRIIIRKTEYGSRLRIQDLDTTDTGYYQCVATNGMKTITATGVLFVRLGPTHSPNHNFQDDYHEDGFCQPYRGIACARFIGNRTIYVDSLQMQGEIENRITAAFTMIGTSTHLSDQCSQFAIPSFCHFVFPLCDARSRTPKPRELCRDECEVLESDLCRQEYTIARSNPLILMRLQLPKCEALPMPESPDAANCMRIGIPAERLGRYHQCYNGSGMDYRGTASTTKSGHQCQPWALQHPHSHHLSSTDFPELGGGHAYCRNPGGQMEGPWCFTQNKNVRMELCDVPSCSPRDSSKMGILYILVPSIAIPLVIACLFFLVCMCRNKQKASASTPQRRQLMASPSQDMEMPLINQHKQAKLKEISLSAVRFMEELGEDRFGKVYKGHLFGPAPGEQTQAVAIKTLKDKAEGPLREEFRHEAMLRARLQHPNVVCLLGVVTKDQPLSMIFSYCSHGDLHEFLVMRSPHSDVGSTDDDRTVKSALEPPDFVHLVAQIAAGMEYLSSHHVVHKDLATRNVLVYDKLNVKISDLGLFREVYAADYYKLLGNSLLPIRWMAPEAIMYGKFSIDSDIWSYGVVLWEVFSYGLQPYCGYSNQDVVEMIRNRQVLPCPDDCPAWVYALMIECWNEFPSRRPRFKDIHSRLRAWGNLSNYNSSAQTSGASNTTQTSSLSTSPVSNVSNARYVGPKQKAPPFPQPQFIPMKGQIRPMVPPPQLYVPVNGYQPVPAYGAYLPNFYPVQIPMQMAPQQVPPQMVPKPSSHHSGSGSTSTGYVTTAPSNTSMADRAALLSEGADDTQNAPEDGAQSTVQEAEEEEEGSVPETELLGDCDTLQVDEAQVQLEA
As to the kind of experiment: flow cytometry on 63-12 / hROR2 cells; anti-His Alexa Fluor 488. A general note: Flow cytometry measures light scatter and fluorescence of single cells or particles in a stream.

The target of the next assay is T2, Ig (human, UniProt Q01973).
T2 construct: Ig domain of the extracellular domain; also called hFc-hROR1-Ig
T2 sequence (Q01973 42-147 limits assumed): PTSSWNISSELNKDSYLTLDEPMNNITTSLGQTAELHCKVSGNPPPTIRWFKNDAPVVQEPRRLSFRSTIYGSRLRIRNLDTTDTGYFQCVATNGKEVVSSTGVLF
As to the kind of experiment: ELISA on directly coated hFc fusion proteins of hROR1 domains; anti-His-HRP; A405.

In a further assay the target is T3, Fr.
T3 construct: also called hFc-hROR1-Fr
T3 sequence (chain, as listed by the source limits assumed): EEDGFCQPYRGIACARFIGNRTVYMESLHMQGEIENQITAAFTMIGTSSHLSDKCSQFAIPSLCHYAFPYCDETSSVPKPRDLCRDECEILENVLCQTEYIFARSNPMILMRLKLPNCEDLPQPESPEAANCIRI
The assay is described as above.

The target of the next assay is T4, Kr (human, UniProt Q01973).
T4 construct: Kringle domain of the extracellular domain; also called hFc-hROR1-Kr
T4 sequence (Q01973 312-391 limits assumed): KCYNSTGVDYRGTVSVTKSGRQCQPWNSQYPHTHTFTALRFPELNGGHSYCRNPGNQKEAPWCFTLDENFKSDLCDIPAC
Described as above.

The target in the next assay is T5, Fr + Ki (human, UniProt Q01973).
T5 construct: Frizzled and Kringle domains of the extracellular domain; also called hFc-hROR1-Fr-Ki
T5 sequence (Q01973 165-391 limits assumed): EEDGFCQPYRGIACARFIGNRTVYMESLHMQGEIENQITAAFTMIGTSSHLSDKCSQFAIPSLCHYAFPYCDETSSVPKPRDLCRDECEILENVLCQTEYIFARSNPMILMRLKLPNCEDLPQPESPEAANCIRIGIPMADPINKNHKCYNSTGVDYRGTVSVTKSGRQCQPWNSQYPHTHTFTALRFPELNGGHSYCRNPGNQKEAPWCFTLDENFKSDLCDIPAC
The assay is described as above.

The target in assay [2] is T6, hFc-mROR1 (extracellular domain of mouse ROR1 fused to the Fc domain of human IgG1) (human; mouse, UniProt Q9Z139 30-406).
T6 construct: extracellular domain; not shown: Fc domain of human IgG1
T6 sequence (Q9Z139 30-406): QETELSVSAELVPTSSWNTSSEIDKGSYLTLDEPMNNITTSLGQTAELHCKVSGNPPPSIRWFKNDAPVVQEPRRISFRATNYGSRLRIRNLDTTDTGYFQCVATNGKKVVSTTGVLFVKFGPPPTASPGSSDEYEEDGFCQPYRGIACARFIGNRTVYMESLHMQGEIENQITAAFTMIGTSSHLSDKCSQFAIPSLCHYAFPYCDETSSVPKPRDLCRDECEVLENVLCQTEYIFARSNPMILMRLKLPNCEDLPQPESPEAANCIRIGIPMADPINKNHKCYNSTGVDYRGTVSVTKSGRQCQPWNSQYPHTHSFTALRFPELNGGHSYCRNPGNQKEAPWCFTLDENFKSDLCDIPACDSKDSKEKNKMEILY
As to the kind of experiment: ELISA; hFc fusion captured by coated anti-human IgG1 Fc; Fab 100 ng/50 µL; anti-His-HRP; A405. How it is done:
The binding of each chimeric rabbit/human Fab to hROR1 and mROR1 fused with human IgG1 Fc (hFc-hROR1 and hFc-mROR1) was analyzed by ELISA. hFc-ROR1 or hFc-mROR1 were captured by anti-human IgG1 Fc antibody immobilized on plate and then incubated with hROR1 specific Fabs comprising a His-tag via detection with mouse anti-His tag.
ELISA: For ELISA (FIG. 2), each well of a 96-well Costar 3690 plate (Corning, Corning, N.Y.) was coated with 100 ng anti-human IgG1 Fc in 25 μL coating buffer (0.1 M Na₂CO₃, 0.1 M NaHCO₃, pH 9.6) for 1 h at 37° C. After blocking with 150 μL 3% (w/v) BSA/TBS for 1 h at 37° C., hFc-hROR1 or hFc-mROR1 was captured following incubation at 100 ng/50 μL for 1 h at 37° C. Then 100 ng/50 μL of Fab was applied in each well at 37° C. 2 h later, 50 μL of a 1:1000 dilution of a mouse anti-His tag mAb conjugated to horse radish peroxidase (HRP) (R&D Systems, Minneapolis, Minn.) in 1% (w/v) BSA/TBS was used to detect the Fab. To determine the epitopes (FIG. 4), hFc fusion proteins containing different domains of hROR1 were coated directly, followed by incubation with Fab before detection by mouse anti-His tag mAb conjugated to HRP. […] The absorbance was measured at 405 nm using a SpectraMax M5 microplate reader (Molecular Devices; Sunnyvale, Calif.) and SoftMax Pro software (Molecular Devices).
In general terms: In an ELISA, binding on a coated surface is turned into a signal by an enzyme label.

Assay [3] concerns the target T7, hFc-hROR1 (extracellular domain of human ROR1 fused to the Fc domain of human IgG1) (human, UniProt Q01973 30-406).
T7 construct: extracellular domain; also called hFc-ROR1; not shown: Fc domain of human IgG1
As to the kind of experiment: SPR (Biacore X100); hFc-hROR1 captured by anti-human Fcγ antibody on CM5; Fab as analyte; 1:1 Langmuir fit. The gist of the method:
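hFc-hROR1 was captured on anti-human Fc CM5 chip in HBS-EP+ (pH 7.4), with reference flow cell subtraction and MgCl₂ regeneration. Fabs were injected at five concentrations, one in duplicate. kon/koff came from a 1:1 Langmuir fit, and Kd = koff/kon.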
On the technique in general: SPR reads the build-up and loss of mass on a sensor chip optically.

The target of assay [4] is T8, hFc-hROR2 (extracellular domain of human ROR2 fused to the Fc domain of human IgG1) (human, UniProt Q01974 34-403).
T8 construct: extracellular domain; not shown: Fc domain of human IgG1
T8 sequence (Q01974 34-403): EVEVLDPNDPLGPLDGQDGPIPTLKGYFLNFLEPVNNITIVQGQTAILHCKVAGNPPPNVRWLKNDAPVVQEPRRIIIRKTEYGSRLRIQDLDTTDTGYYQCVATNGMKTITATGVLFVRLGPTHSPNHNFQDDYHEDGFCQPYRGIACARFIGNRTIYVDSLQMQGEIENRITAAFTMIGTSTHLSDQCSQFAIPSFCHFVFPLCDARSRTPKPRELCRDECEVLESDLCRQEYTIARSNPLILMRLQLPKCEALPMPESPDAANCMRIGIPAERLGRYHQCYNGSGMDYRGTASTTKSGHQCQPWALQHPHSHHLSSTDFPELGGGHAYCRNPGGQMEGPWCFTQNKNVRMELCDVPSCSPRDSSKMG
As to the kind of experiment: ELISA as for hFc-hROR1; third bar series, keyed 'hFc-hROR1' a second time on the sheet, taken as hFc-hROR2 by legend paragraph 27.

For a further assay, the target named is T9, hROR2-ECD-HIS (human, UniProt Q01974).
T9 construct: extracellular domain; also called hROR2-His; purified extracellular domain of hROR2
T9 sequence (Q01974 34-403): as above
As to the kind of experiment: Western blot of denatured, reduced samples; anti-human Fcγ-HRP. The source says:
The Western blots contained the following samples as indicated: Lane 1: K562 cells ectopically expressing full length of hROR1. Lane 2: untransfected K62 cells. Lane 3: purified extracellular domain of hROR1. Lane 4: purified extracellular domain of hROR2.
Western blotting: Cells or proteins were lysed by 1× sample buffer (containing 1% β-mercaptoethanol) and boiled before running on NuPAGE Novex 4-12% Bis-Tris gels (Invitrogen).

The target of assay [5] is T1, hROR2. As to the kind of experiment: flow cytometry on T47D cells (ROR2 positive, ROR1 negative); APC goat anti-human Fcγ. How it is done: Flow cytometry: Cells were stained using standard flow cytometry methodology. Briefly, for purified anti-ROR1 Fab (FIG. 3), 0.1-1×10⁶ cells were stained with 1000 ng/100 μL of Fab on ice for 1 h. After washing twice with ice-cold flow cytometry buffer (PBS containing 1% (v/v) BSA, 0.1% sodium azide and 1 mM EDTA), the cells were incubated with a 1:1000 dilution of a mouse anti-His tag mAb conjugated to Alexa Fluor 488 (Qiagen) in 100 μL flow cytometry buffer on ice for 30 min. For purified anti-ROR1 IgG1 (FIG. 8), 0.1-1×10⁶ cells were blocked by 4% goat serum for 15 min at room temperature and then incubated with 100 ng/100 μL of IgG on ice for 1 h. After washing twice with ice-cold flow cytometry buffer, cells were stained with a 1:500 dilution of goat anti-human IgG, Fcγ pAbs conjugated to APC (Jackson ImmunoResearch) in 100 μL flow cytometry buffer on ice for 30 min. For commercial goat anti human ROR1 polyclonal antibody (FIG. 8), 0.1-1×10⁶ cells were stained with 200 ng/100 μL of Ab on ice for 1 h. […] Finally, 4′,6-diamidino-2-phenylindole (DAPI) was added to a final concentration of 100 ng/mL to exclude dead cells from the analysis. Cells were analyzed using a FACSCalibur instrument (BD Biosciences) and FlowJo analytical software (Tree Star, Ashland, Oreg.).

Assay [6] addresses T10, human ROR2 on HEK293 cells (cell microarray) (human, UniProt Q01974 34-943).
T10 construct: whole, on cells; Expressed on fixed HEK293 cells of the Retrogenix microarray
As to the kind of experiment: cell microarray (Retrogenix): fixed HEK293 cells over-expressing the protein; AlexaFluor647 anti-human IgG Fc detection. How it is done:
(§1) ZsGreen1 signals on the left indicate the expression levels of the various human membrane proteins.
(§2) FIG. 28 provides an overview of the Retrogenix Cell Microarray Platform. […] An AlexaFluor647 anti-human IgG Fc detection antibody was used. Primary hits (duplicate spots) were identified by analyzing fluorescence (AlexaFluor647 and ZsGreen1) on ImageQuant. Vectors encoding all hits were sequenced to confirm their correct identities. […] Slides were analyzed as before (FIG. 29).

The target of assay [7] is T11, human CD20 on HEK293 cells (cell microarray) (human, UniProt P11836 1-297).
T11 construct: whole, on cells; Expressed on fixed HEK293 cells of the Retrogenix microarray
T11 sequence (looked up): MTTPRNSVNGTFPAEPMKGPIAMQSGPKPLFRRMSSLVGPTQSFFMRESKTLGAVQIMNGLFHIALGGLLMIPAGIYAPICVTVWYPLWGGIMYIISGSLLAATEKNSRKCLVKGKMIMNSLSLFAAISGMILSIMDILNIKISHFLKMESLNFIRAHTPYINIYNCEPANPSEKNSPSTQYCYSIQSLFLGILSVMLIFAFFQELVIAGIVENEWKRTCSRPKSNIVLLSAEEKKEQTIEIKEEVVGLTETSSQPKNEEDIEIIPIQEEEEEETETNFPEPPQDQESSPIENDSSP
The assay is described as above. How it is done: as §1, §2

The target of assay [8] is T12, StrepII-tagged human ROR1 extracellular domain (human, UniProt Q01973 30-406).
T12 construct: extracellular domain; also called ROR1-strep; strep-tagged human ROR1
T12 sequence (Q01973 other isoform, or with tags, fused parts or gaps): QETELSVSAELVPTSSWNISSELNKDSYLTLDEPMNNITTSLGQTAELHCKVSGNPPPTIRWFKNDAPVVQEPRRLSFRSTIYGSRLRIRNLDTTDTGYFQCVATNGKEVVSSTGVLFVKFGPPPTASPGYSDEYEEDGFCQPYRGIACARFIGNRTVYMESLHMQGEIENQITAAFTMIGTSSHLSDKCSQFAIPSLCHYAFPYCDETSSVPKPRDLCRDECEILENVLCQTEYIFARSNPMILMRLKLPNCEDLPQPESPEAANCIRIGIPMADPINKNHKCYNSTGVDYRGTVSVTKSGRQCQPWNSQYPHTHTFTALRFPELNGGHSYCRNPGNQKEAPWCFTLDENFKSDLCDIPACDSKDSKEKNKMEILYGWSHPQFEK
As to the kind of experiment: SPR (Biacore T200); mAb captured by goat anti-human Fcγ IgG on CM5; ROR1-strep as analyte (Example 8); first of two independent measurements; batch of the parental IgG not stated. How it is done: (§3) Affinity screening was then performed to select the best binders. Affinities were determined using a Biacore T200 instrument (GE Healthcare, Buckinghamshire, UK) and data was evaluated using Biacore Evaluation T200 V2.0 software. To capture mAbs, goat α-human Fc-gamma-specific IgG (Jackson ImmunoResearch, #109-005-098) was covalently immobilized on a CM5 chip (GE Healthcare, #BR-1005-30).

For assay [9], the target named is T12, StrepII-tagged human ROR1 extracellular …. As to the kind of experiment: SPR (Biacore T200); mAb captured by goat anti-human Fcγ IgG on CM5; ROR1-strep as analyte (Example 8); second of two independent measurements; batch of the parental IgG not stated. How it is done: as §3
Briefly, for capturing mAbs in HEK293T supernatants, the undiluted supernatants were captured with a flow of 30 μl/min for 120 s.

T7 sequence (Q01973 30-406): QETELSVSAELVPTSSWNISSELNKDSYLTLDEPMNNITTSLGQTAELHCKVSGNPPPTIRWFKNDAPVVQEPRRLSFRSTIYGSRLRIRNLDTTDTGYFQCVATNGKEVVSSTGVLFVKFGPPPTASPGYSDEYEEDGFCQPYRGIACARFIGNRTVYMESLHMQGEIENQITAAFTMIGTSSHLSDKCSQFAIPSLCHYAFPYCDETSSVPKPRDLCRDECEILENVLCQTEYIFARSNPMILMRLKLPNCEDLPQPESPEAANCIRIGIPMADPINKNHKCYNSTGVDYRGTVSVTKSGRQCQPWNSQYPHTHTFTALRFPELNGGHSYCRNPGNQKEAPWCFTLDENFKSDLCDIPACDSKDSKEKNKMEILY
T10 sequence (Q01974 34-943): as the sequence (Q01974 34-943 limits assumed) above

B1: ERR1-TOP22 chimeric rabbit/human Fab (Fab, V domains shown)
VH: QSLEESGGRLVTPGTPLTLTCTVSGFSLSSYYMSWVRQAPGKGLEWIGTISSSGSTYYASWVKGRFTISKTSTTVDLKMTSLTTEDTATYFCARDLDYDMDLWGPGTLVTVSS
VL: SYELTQLPSVSVSLGQTARITCGGNSIGSKAVHWYQQKPGLAPGLLIYNDDERPSGVPDRFSGSNSGDTATLTISGAQAGDEADYYCQLWDNNAAVFGGGTQLTVTG
notes: Chimeric rabbit/human Fab with His tag, expressed in E. coli (pET11a); lambda light chain
For the molecule B1, the binding result with hROR2 [1] is given as “no binding (tested: 1000 ng/100 µL)”; in the assay with Ig, “no binding”; in the assay with Fr it was “no binding”; with Kr, “no binding”; with Fr + Ki it was “no binding”; in assay [2] it was “binds”. For the same molecule, the binding result in [4] is “no binding (tested: 100 ng/50 µL)”. The molecule also returned a Kd in assay [3] of 110 nM. Also, in [3], the koff came out at 0.0813 s⁻¹. In [3], this molecule had a kon of 737000 M⁻¹ s⁻¹.

B2: XBR1-402 chimeric rabbit/human IgG1 (antibody, V domains shown)
VH: QEQQKESGGGLFKPTDTLTLTCTASGFDISSYYMSWVRQAPGNGLEWIGAIGISGNAYYASWAKSRSTITRNTNLNTVTLKMTSLTAADTATYFCARDHPTYGMDLWGPGTLVTVSS
VL: B1 VL with G23E, S26N, N49D, L89V, N92S, N93S, A95Y
notes: Rabbit variable domains on human IgG1 constant regions (vector PIGG), lambda light chain, from HEK 293F cells, Protein A purified
Regarding B2, the binding result with hROR2-ECD-HIS is “no binding (tested: 2 µg/mL)”; in the assay with hROR2 [5] it was “no binding (tested: 100 ng/100 µL)”; in assay [6], “no binding (tested: 20 µg/mL)”; in assay [7], “no binding (tested: 20 µg/mL)”. For the same molecule, the Kd in [8] and in assay [9] was 5.1 nM in each case. For the same molecule, the dissociation rate constant (koff) in [8] was 0.00591 s⁻¹; in assay [9], 0.00556 s⁻¹. Besides, the figures for the kon in [8] and in [9] were 1.16e+06 M⁻¹ s⁻¹ and 1.1e+06 M⁻¹ s⁻¹, respectively.
